The results in this text go back to the DeepSol protein solubility set.

The nature of the data set: soluble on expression in E. coli; label from the status in PepcDB or PDB records.
In the case of “MDNYEKVRVVGRGAFGVCWLCRGKNDASHQKVIIKLINTHGMTEKEENSIQSEVNLLKKVQHPLIIGYIDSFIMDNQLGIVMQYAEGGTLERLINDQRAIKDSNMREYFPEKTVLDYFTQILIALNHMHQKNIVHRDLKPQNILMNRRKTVLKLSDFGISKELGTKSAASTVIGTPNYLSPEICESRPYNQKSDMWSLGCVLYELLQLERAFDGENLPAIVMKITRSKQNPLGDHVSNDVKMLVENLLKTHTDKRPDVSQLLSDPLVLPYLISIHCDLGRIEPPPTDKRKPSASLSSRLRTYPTQSTLRPYSLSSNAPTTHLTQLTPMPSHIDSGFFSSGRTSNQRTQSRSQVHSKY”, the “soluble on expression in E. coli” value was “soluble”. With “MDPACASVDNSKSDPLTDSYPQKYRYSFHRNCQRIMLGVNLKRKNSHYTKGATMTATHNHYLAVLGEDFVAQQYANEGYDITARNVSFSVGEIDIIATSPQGEVVFIEVKTRSSSLMDAAEAVTPTKMRKIHRAASKWLQGKPFADIRFDVVAVHVDEYGELDMTRYQGVEHGAC”, the “soluble on expression in E. coli” value was “not soluble”. With “MDPAKVNTVDEDIKFKEVPGITNILLLSSDARPGEDVSRSDSIMILTIDNINKKLKVTSLMRDMLVKIDGHGEEKLNHAFAYGGPTKTIETIQNNFGIKLNNYVIVDFNAFVKVIDAINGIEVTVKDYELDELNKYILDGGGSEEDLLPSPGTYNLNGYQALSYARIRKVGNGEYERTERQRAVLQIALEKVKDMSTVKLVSLLNELFPYVKTNISLGNAMDYGFTALNVGKKCNFEIEQFRVPLDSISKGGIINNKGWVFVIDKVETSKALQEFIFNDNKNYEPDTSNFDSIIEQYFNDYDIKDDTTHPLEHHHHHH”, the “soluble on expression in E. coli” value is “soluble”.

On to “MDPEALNLEFYDKNGLDNPIHFRCDPKRIGMTLPSPDFSVDDVLELVGGNRMIEVVQVQNQGSVKMSLQEFINFYKTPQEKREVLYNVLSLEFSQTPLEDLVKSPELVRQIDWVGNQWPDALRQRWISFNGRDKKFYNPHHTFPKVQNYCLMSVANCYTDFHIDFSGTSVWYHVLKGRKVFWLIPPTETNFFIYQEFIKTVNDNAFFGKSVEKCHVAILEPGDTMLIPSGWIHAVYTPDDSLVFGGNFLHSQSCKTQLRVYQVENKLNITRKFRLPYNEELIFYVIADYVKQWTGREYVRPLRIEDAKYDYVGDKWKTAGGHHKKIEYSDYETGVELTNDMIKGDEESTKDEVKVIAMHAENSLFGYPMVSKATFSADTGLEEEADEDEVKYQETKEEMDARRDAEIDELANSNSLIFYKNRTHDFVRNKCVPDHKLPIGHEPPIYFNDDEISRISPRLLDELETLGTYIRRKARVEVAEGICQPASLINTFQTVLKKRRSELTGKKFEFNQIMPRRYTRSTMETGEYDFQPTQEVPQESARRSTRFKVDNFPDELLESEVTDKPIILPQQPSSGPLEYLPAPKDEIKEDINGFEEEFEEEYEGIGQRDDQEEEEYDAEEPEDQEEEEEDEYQAEEYTPTPVTRRSSSRRSGAKNDESEEVSVKKDKKEKMEKVEKDEKRRNSKSKKDKISKEKKKKERERIELESQLDAELRAAHGGGSSKSKKKKPEKPAFVGGLPTSSIQIDPVVSNPYNYDPRMEMMKLGTGQLKSAYRKTKNNVELHIEKNLYKIEPKRGSEEGSQSREQSMEPEHSTPVFTTFDDINEANNDHYDGQKPPTKRAKYEAISVDTYETPSSSRNKEHKEYRPSPNAAPTPSPSHHQKPKLSSPAMVSSTNEYQLRKHMSSERRSSDAGSAMKKGVYMPAMSRQDKMIAEGASAPSSRHSSISSERRPSFIPDFNSSRNSSIDTPYTPTTVTPSRSSWLPNTSSINRHSIEDDSPIDVVNDSLSPINIASSPTYPTAITPPPVTLSDLKKDMSNGRKSHSQHHDDGHKHKIPSKEAIAELKLLVGKLKAINDS”, for which the “soluble on expression in E. coli” value is “not soluble”. As for “MDPLDRLIQLANLQGRLDQRCQLQGSWALEHPQAVPGEATFHIVMAGTCYCEFLDGGRLDLHPGDLILLPRGTPHLLRSDSPAQPCEPTVEHRGSIPLYQLNGPGEALDMLCGSYRYHAGASLFGALPERLLVHMDESTQQPLRALIGLMREEAESTRSGARSIIDALATALFALALRAYLDRQPLGDGLFGLLGDARLGRALRAMLERPEHAWTLEQLAQQAAMSRASFVRAFSALGGTSPWNLLTRIRMEKARGLLRQTQKSLLDIAAETGYQSEAAFSRNFRQAFGESPGRFRRQADSAR”, the “soluble on expression in E. coli” value is listed as “not soluble”. For the sequence “MDQFVNHLSCTALLVGKKASVDGSTMIARNEDASGGINPKRFIVVQPADQPQRYVSTFNGFQLDLPQTPLQYTCTPVADQSHGTWGEAGINSENVAMSATETEFTNTTMLGLDPLEPDGIGEEAMLTVVLPYIHNAREGVERLGELVTKYGTCESNGIAFSDANEIWYFETVGGHHWAAERIPDDRYVLAPNQTGIQEIDFQAPEHYKYSADLKDFAAKYHLNKAKEGFNFRDIFGEDTQADHYYNTPRVWYAQKMLNPEIDQDPESRTMPFSRVPSHLISVEDVAMVLSSHYQATDFDPYGQTGTPETRRRYRPIGMNRNQEMHILQIRPNMPKSHAAIHWLAEGVNIFNSPVPFFANCTTTPENFQYTPIDKSSTDSFYWLNKLIAMVADPLFAEHDWDAEFAVSESRKFGFAAGRAAVAKGDAAFADVKPEDLPAWHDALNAETAATITNDLQYLLHQLVCIRAEKMTPSFEKGGELLEHHHHHH”, the “soluble on expression in E. coli” value is listed as “not soluble”. As for “MDQLREIVDPDQPQTLRQQAEGWGKMAELLREYSLLLDERLRLVEHSWTGEAATMYFDEVRRVQEYIEDSAERATANCGLWCVIATMAGIAKHDVSHIHQLWKDLDAATDAVGLGFVAGVFGADEALEDFQRKPFDAASRQIMEVTMSAADESYARMRDFEEFEPPPSVDDSGLELQSVSTPAPPSGTAVAPPSTTVTATPAVPLGPTAPRPVVPSVIGSRPGMMPMARPMMGPGHTVPPVIGQRDGGSAQPGATGRLIGRDGVVRVTPDVDLRDPNASRAHYGGDDVNRGVIKSQNPQRVADEAQFKLEEEVRRLRERAYAHRVETLTADHSQYAIPGIVGDDSAWDTKAHDPGPVAFDVRRLRHRPVVDDWTLAVRRH”, the “soluble on expression in E. coli” value is on record as “not soluble”.

Take “MDQTVLDSAFNSPVDSGIAGTTTGSGSTTHFGVGTNFKVSVRSSSRSTDGTDSTDGANSDNVTGSTGSTPAHHSITNLNMALSQHSIDSATAASSTNPFPHFNQADLLNFHQNSLLPHHMFSQFGRYPQFEQKPDVGVLQQQMQMREAKPYKCTQCVKAFANSSYLSQHMRIHLGIKPFGPCNYCGKKFTQLSHLQQHIRTHTGEKPYKCKFTGCDKAFSQLSNLQSHSRCHQTDKPFKCNSCYKCFTDEQSLLDHIPKHKESKHLKIHICPFCGKSYTQQTYLQKHMTKHADRSKASNFGNDVVPADPFDPSLLSWNPMQGMGDNAHDSSSFNISSLTDQFAANTMIGSQSTNYNPAFQNSAFSQLFNIRNNRYLSEYPTSTKNGERAPGFNMITPLENIQRYNGSSSSATAVVTATGSAVVSSTPSSTSSSSAGSSSSQGGVFNPQSLINNMKNHSY”: the “soluble on expression in E. coli” value is “not soluble”.

Regarding “MDRISGLPDEVLVKILSFVPTKVAVSTSILSKRWEFLWMWLTKLKFGSKRYSESEFKRLQCFLDRNLPLHRAPVIESFRLVLSDSHFKPEDIRMWVVVAVSRYIRELKIYSSHYGEKQNILPSSLYTCKSLVILKLDGGVLLDVPRMVCLPSLKTLELKGVRYFKQGSLQRLLCNCPVLEDLVVNLSHHDNMGKLTVIVPSLQRLSLSTPSSREFVIDTPSLLSFQLVDRNDNSHTFLIENMPKLREAYINVPFADIKSLIGSITSVKRLAISSEVGYGEGFIFNHLEELTLWNKYSSNLLVWFLKNSPNLRELMLVSETDVSFFH”, the “soluble on expression in E. coli” value is reported as “soluble”.

“MDRLKAMQVFVEVADRGSLSAAAMHLGMSRAMVSRYLAELEAWVGVRLLHRTTRRLSLTPAGSETLPRCRRMLEMVGDMREAVAAPDAEPRGLLRVTAAMSFGGAQLAEAVAEFVRRHPAASIDLLLVDRAVNLVEERVDLAVRITNDLDPNLIGRRLADCRSVVCAAPQYLQQHGAPARAEDLSLHNCLTHSYFGRSLWRFERAGEPVEVPVGGNITANETDVLMRAALAGAGIVMLPTYLAAGQIAAGTLRPLLPDCAPPVLGIHGVYVSRKQMPLILRTMLDFLAERFNPAPWDAALEGR”: the “soluble on expression in E. coli” value is reported as “not soluble”.
